Target: T1, HIS-ABI3 fusion protein (Arabidopsis thaliana, UniProt Q01593 1-720)
T1 sequence (looked up): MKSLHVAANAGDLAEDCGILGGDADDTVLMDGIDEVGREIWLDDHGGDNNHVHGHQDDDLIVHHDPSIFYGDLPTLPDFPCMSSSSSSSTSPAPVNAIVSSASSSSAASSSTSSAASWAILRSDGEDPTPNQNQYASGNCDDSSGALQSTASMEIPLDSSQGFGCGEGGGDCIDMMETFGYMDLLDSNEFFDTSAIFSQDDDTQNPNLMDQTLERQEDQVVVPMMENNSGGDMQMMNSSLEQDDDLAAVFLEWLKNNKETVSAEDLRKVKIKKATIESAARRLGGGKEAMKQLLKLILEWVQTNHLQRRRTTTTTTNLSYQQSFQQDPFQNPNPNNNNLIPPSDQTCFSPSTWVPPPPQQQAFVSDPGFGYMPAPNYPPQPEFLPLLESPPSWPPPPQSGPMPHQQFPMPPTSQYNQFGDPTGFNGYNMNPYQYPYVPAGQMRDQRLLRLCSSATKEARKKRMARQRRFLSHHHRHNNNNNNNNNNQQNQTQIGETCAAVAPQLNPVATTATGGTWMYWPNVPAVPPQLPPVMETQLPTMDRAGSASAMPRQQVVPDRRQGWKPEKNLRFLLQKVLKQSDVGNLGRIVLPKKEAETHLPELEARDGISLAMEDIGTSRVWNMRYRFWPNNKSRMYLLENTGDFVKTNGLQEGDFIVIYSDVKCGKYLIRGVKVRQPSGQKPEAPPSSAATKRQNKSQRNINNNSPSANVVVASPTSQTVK
Assay: pull-down

B1: GST-ERF1 fusion protein (natural protein)
chain: not shown
binding result: binds

Source: publication doi:10.1101/2023.03.08.531793 (bioRxiv, 2023)
